This note sets out measurements from paper doi:10.1101/2022.07.04.498669.

This test has as its target paDXPS as measured by native mass spectrometry (Pseudomonas aeruginosa) (UniProt Q9KGU7). Put plainly: native MS.

What is called stoichiometry N is the number of molecules, sites or subunits per partner or assembly. “paDXPS as measured by native mass spectrometry (from UniProt Q9KGU7 1-627) (enzyme)” came in with a stoichiometry N of 2.
